# In patent US20260176343A1 (UCL BUSINESS, published 2026):
# B1: NVG-111 (bispecific antibody)
# chain: QVQLVESGGGVVQPGRSLRLSCAASGFIFSEHNMAWVRQAPGKGLEWVATISDDGRNTYYRDSMRGRFTISRDNSKNTLYLQMNSLRAEDTAVYYCTSHRYNLFDSWGQGTMVTVSSGGGGSGGGGSGGGGSDIQMTQSPSSLSASVGDRVTITCKASQNIDRYLNWYQQKPGKAPKRLIYNTNKLQTGVPSRFSGSGSGTEFTLTISSLQPEDFATYYCLQYNSLPLTFGQGTKLEIKSGSGGGGSQVQLVQSGAEVKKPGSSVKVSCKASGYTFTRYTMHWVRQAPGQGLEWMGYINPSRGYTNYNQKFKDRVTITADKSTSTAYMELSSLRSEDTAVYYCARYYDDHYCLDYWGQGTMVTVSSVEGGSGGSGGSGGSGGVDDIQMTQSPSSLSASVGDRVTITCSASSSVSYMNWYQQKPGKAPKRLIYDTSKLASGVPSRFSGSGSGTEFTLTISSLQPEDFATYYCQQWSSNPFTFGQGTKVEIKHHHHHH
# B2: AR_TCE-1 (bispecific antibody)
# chain: QVQLVESGGGVVQPGRSLRLSCAASGFIFSEHNMAWVRQAPGKGLEWVATISDDGRNTYYRDSMRGRFTISRDNSKNTLYLQMNSLRAEDTAVYYCTSHRYNLFDSWGQGTMVTVSSGGGGSGGGGSGGGGSDIQMTQSPSSLSASVGDRVTITCKASQNIDRYLNWYQQKPGKAPKRLIYNTNKLQTGVPSRFSGSGSGTEFTLTISSLQPEDFATYYCLQYNSLPLTFGQGTKLEIKSGGGGSIEPDSESQGGGGSQVQLVQSGAEVKKPGSSVKVSCKASGYTFTRYTMHWVRQAPGQGLEWMGYINPSRGYTNYNQKFKDRVTITADKSTSTAYMELSSLRSEDTAVYYCARYYDDHYCLDYWGQGTMVTVSSVEGGSGGSGGSGGSGGVDDIQMTQSPSSLSASVGDRVTITCSASSSVSYMNWYQQKPGKAPKRLIYDTSKLASGVPSRFSGSGSGTEFTLTISSLQPEDFATYYCQQWSSNPFTFGQGTKVEIKHHHHHH
# B3: AR_TCE-3 (bispecific antibody)
# chain: QVQLVESGGGVVQPGRSLRLSCAASGFIFSEHNMAWVRQAPGKGLEWVATISDDGRNTYYRDSMRGRFTISRDNSKNTLYLQMNSLRAEDTAVYYCTSHRYNLFDSWGQGTMVTVSSGGGGSGGGGSGGGGSDIQMTQSPSSLSASVGDRVTITCKASQNIDRYLNWYQQKPGKAPKRLIYNTNKLQTGVPSRFSGSGSGTEFTLTISSLQPEDFATYYCLQYNSLPLTFGQGTKLEIKSGGGGSIEPDSLEEGGGGSQVQLVQSGAEVKKPGSSVKVSCKASGYTFTRYTMHWVRQAPGQGLEWMGYINPSRGYTNYNQKFKDRVTITADKSTSTAYMELSSLRSEDTAVYYCARYYDDHYCLDYWGQGTMVTVSSVEGGSGGSGGSGGSGGVDDIQMTQSPSSLSASVGDRVTITCSASSSVSYMNWYQQKPGKAPKRLIYDTSKLASGVPSRFSGSGSGTEFTLTISSLQPEDFATYYCQQWSSNPFTFGQGTKVEIKHHHHHH
# Target: ROR1 on Jeko-1 cells (UniProt Q01973 30-937, limits assumed)
# Assay: cell-based or functional assay
row,Binder,"maximum target cell death, long-term (120 h) killing assay, 1 µg/mL, 1:10 effector to target ratio [%]"
1,B1,60.5
2,B2,58.7
3,B3,55.7
